This data set concerns CYT-19. The data set is described as follows: ensemble unwinding (CYT-19 concentration dependence). Particulars: kmax 0.86 min-1; functional K1/2 for unwinding; substrate probably -1d,rSA5 = CCCUCdUAAAAA (2'-deoxy at U -1); Ribozyme buffer for complex assembly: 50 mM MOPS pH 7.0, 10 mM MgCl2, 25 C; exact CYT-19/Ded1 assay buffer not in the material.

Data on 1 substance can be found in PMC4211656.

In turn, “L-16/ScaI group I ribozyme with standard 11-bp P1 (ensemble)” showed a K half of 5.7 µM.
